Reference: publication PMC3276543, “Structural Basis of Transcriptional Gene Silencing Mediated by Arabidopsis MOM1” (PLoS Genetics, 2012)

Molecular target: the molecule itself
Experiment: crystal structure; hanging drop vapor diffusion at 4°C, 0.1 M Tris pH 8.5, 0.3 M magnesium formate dihydrate; SAD phasing with seleno-methionine protein; native data to 3.2 Å

B1: MOM1 fragment corresponding to amino acid positions 1700 to 1814 (CMM2-containing protein fragment) (domain or fragment, Arabidopsis thaliana, UniProt Q9M658 1700-1814, looked up)
chain: HSAGVTALVPSLLNNGTEQIAVQPVPQIPFPVFNDPFLHELEKLRRESENSKKTFEEKKSILKAELERKMAEVQAEFRRKFHEVEAEHNTRTTKIEKDKNLVIMNKLLANAFLSK
notes: MORPHEUS' MOLECULE1 (MOM1), Arabidopsis thaliana, protein of 2001 amino acids, residues 1700-1814; residues 1729-1811 are ordered in the crystal; A seleno-methionine-containing form (E. coli strain 834) was used for phasing only; the 3.2 A data set is of the native protein; also called CMM2 protein fragment; CMM2 domain
In the case of B1, the “stoichiometry N” value is reported as 2.
